According to PMC9942873 (Immunity, 2023):
Where a chain is given by its changes, count along the chain named.

B1: RUPA-57 (antibody, V domains shown)
VH: QVQLVESGGGVVQPGRSLRLSCTASGFSFSDYGMHWVRQAPGKGLEWVAVISYHGRDKSYADSVKGRFTISRDNSKKTLYLQMNSLTAEDTALYYCAKSNDHYDNSGYFVYWGLGTKVTVSS
VL: SYELTQPPSVSVSPGQTATITCSGDALPKKFAFWYQQKSGQAPVLVIYEDTKRPSGIPERFSGSSSGTLATLTISGAQVEDEADYYCYSRDSSNTQRVFGGGTKVTVL
notes: human IgG1; source: recombinant human IgG1, 293T (Protein A purified) or GenScript
B2: RUPA-44 (antibody, V domains shown)
VH: QLQLQESGPGLVKPSETLSLTCTVSGGSISRSPYYWGWIRQPPGKGLEWFGSIYNNGSTYYNPPLKSRLTISVDTSKNQFSLKLSSVTAADTAVYYCARHGGSTGMKVVVIAPPDYWGQGTLVTVSS
VL: DIQMTQSPATLSASVGDRVTITCRASQSISSWLAWYQQKPGEAPKLLIYKASSLQSGVPSRFSGSGSGTKFSLTISSLQPDDFATFYCQQYHSYPYTFGQGTKLEIK
notes: as for B1
B3: RUPA-84 (antibody, V domains shown)
VH: QVQLVQSGAEVKKTGASVKVSCKASGYTFTSHDIIWVRQAAGQGLEWMGWMNPNTGKKGYAQKFQGRVTLTRNMSTGTAYMELNSLRSDDSAVYYCARGVGTYYGSEGWLDPWGQGTLVTVSS
VL: QSVLTQPPSASETPGQRVTISCSGSSSNVGSNSVNWYQQLPGTAPKLLMYNTNQRPSGVPDRFSGSKSGTSASLAISGLRSEDEADYYCATWDDSLKRGVFGGGTKLTVL
notes: as for B1
B4: RUPA-35 (antibody, V domains shown)
VH: QVQLVQSGAEVKKPGASVKVSCKASGYTFTSHDIIWVRQAPGQGLEWMGWMNPNIGDTGYAQKFQGRLSMTRKMSISTAYMELSSLRSEDTAVYYCSRGVGTYHGSGGWFDPWGQGTLVTVSS
VL: B3 VL with S26T, V29I, S33T, N35S, L40Y, N51S, T52D, R80Q, D86E
notes: as for B1
B5: RUPA-50 (antibody, V domains shown)
VH: QVHLVESGGGVVQPGRSLRLSCAASGFTFRSYGMHWVRRVPGKGLEWVATISYDETFKDYPDSVKGRFTISRDNSKNTLFLQMNSLRPADTAVYYCAKDRAHSMHYFEYWGRGTLVTVSS
VL: SYELTQPPSVSVSPGQTARLTCSGDALPKKFAYWYQLKSGQAPVLVIYEDSKRPSGIPERFSGSSSGTTATLTISGAQVEDEADYYCYSRDGSGDQKNIFGGGTKLTVL
notes: as for B1
B6: RUPA-70 (antibody, V domains shown)
VH: QVQLQESGPGLVKPSQTLSLTCTVSGGSISIGGYYWSWIRQHPGKGLEWIGYIYYSGTTYYNPSLKSRVIISIDTSKNQFSLRLKSVTAADTAVYYCARTGLVAAIRGSRRGQQGDYFDYWGQGTLVPVSS
VL: SYELTQPPSVSVSPGQTASLTCSGDKLGDKYASWYQQKPGQSPVLVIHQDKKRPSGIPERFSGSNSGNTATLTISGTQAMDEADYYCQAWDSNTGVFGGGTKLTVL
notes: as for B1
B7: RUPA-42 (antibody, V domains shown)
VH: QVQLQESGPGLVKPSQTLSLTCTVSGGSISSGGYYWSWIRQHPGKGLEWIGYIYYSGTTYYHPSLESRVTISVDTSKNQFSLKLNSVTAADTAIYYCARAGLVAAIRGSRRGQQGDYFDHWGQGTLVTVSS
VL: B6 VL with L20I, D25E, K30R, A32V, V44L, I47L, M80L, Y86F, N93S
notes: as for B1
B8: RUPA-25 (antibody, V domains shown)
VH: QVQLVQSGAEVKKPGASVKVSCTASGYNFLTHDISWVRQATGQGLEWMGWMNPNTGKKGYVQKFQGRVTMDRDMSKSTAYMELRSLTSEDTAVYYCVRGVGSYYGSGGWFDPWGQGTLVTVSS
VL: QPVLTQPPSASETPGQKVTISCSGSSSNIGSDTVSWYVQLPGTAPKLLIYNDNQRPSGVPDRFSGSKSGTSASLAISGLQSEDEADYYCATWDASLKRRVFGGGTTLTVL
notes: as for B1
B9: RUPA-53 (antibody, V domains shown)
VH: QVLLVQSGAEVKKPGASVKVSCKASGYTFLYHDISWVRQATGQGLEWMGWMNPNTGDTGYAQRFQGRVTMTRDMSISTAYLELGSLSSEDTAVYYCARGVGSYHGSGGWLDPWGQGTLVIVSS
VL: not shown
notes: as for B1
B10: RUPA-34 (antibody, V domains shown)
VH: EVQLVESGGGLIQPGGSLRLSCAASGFTVSSNYMSWVRQAPGKGLEWVSVIYSGGSGGSTYYADSVKGRFTISRDNLKNTLYLQMNNLRAEDAAVYYCVRDSRGWGYFDDWGQGTLVTVSS
VL: EVVLTQSPGTLSLSPGERATLSCRASQSIRTNYLAWYQQKPGQTPRLLIYGASSRATGIPDRFSGSGSGTDFTLTISRLEPEDFAVYFCQQYQNSPWTFGQGTKVEIK
notes: as for B1
B11: RUPA-61 (antibody, V domains shown)
VH: QVQLVQSGAEVKKPGASVKVSCKASEDTFSSYYIHWVRQAPGQGLEWMGMMNPSGGGTRYTQKFQGRVTMTSDTSTSTVYMEVISLRSEDTAVYYCARVRKRDAYNNRNWGSVFGGMDVWGQGTTVTVSS
VL: QSALTQPPSASGSPGQSVSISCTGTSSDVGGHDYVSWYQHHPGKAPKLMIYEVSKRPSGVPDRFSGAKSGNTASLTVSGLQAEDEADYYCSSFGGSNNLVFGGGTKVTVV
notes: as for B1
B12: RUPA-29 (antibody, V domains shown)
VH: QVHLVESGGGVVQPGRSLRLSCAASGFTFRSYGMHWVRLAPGKGLEWVTAIWYDGSKKHFADSVKGRFTISRDNSKNTLYLQMSSLRVEDTAVYYCARDFAHGAFYPVDWGRGTLVTVSS
VL: SYELTQPPSVSVSPGQTARITCSGDALPKKHAYWYQQKSGQAPVLVIYDDSKRPSGIPERFSGSSSGTMATLSISGAQVEDEAAYYCYSSDTSANYWVFGGGTKLTVL
notes: as for B1
B13: RUPA-49 (antibody, V domains shown)
VH: QVQLVQSGAEVKKPGASVKVSCKASGYTFLYHDIIWMRQATGQGPEWMGWINPNTGNTGLAQKFQGRVSLTRNMSSGTAYMELRSLRSEDRAIYFCARGVGTYHGSGGWFDPWGQGTLVAVSS
VL: QSVLTQPPSASETPGQRVTLSCSGSSSNIGSHTVNWYRQLPGTAPKLLIHSDDQRPSGVPDRFSGSKSGTSASLAISGLQSEDEADYYCATWDDSLKRGVFGGGTKLTVL
notes: as for B1
B14: RUPA-47 (antibody, V domains shown)
VH: QVQLVQSGAEVKKPGASVKLSCTASGYTFTNFGITWVRQAPGQGLEWMAWISVYSGDTDYAQRFQGRVTMTTDTSTRTAYMEMRSLSFDDTAVYYCVRGGRDSPILGGYWGQGTLVTVSS
VL: EIVLTQSPGTLSLSPGERVTLSCRASQSVRSMYLAWYQQKPGQAPRLLIHGASIRATGIPDRFSGSGSGTDFTLTISRLEREDFAVYYCHQYGSSPLTFGGGTKVESK
notes: as for B1
B15: RUPA-41 (antibody, V domains shown)
VH: QVQLVQSGAELKKPGASVKVSCKASGYTFTSHDITWVRQAAGQGLEWMGWMNPNTGDKGYAQKFQGRVTLTRNMSTRTAYMELNSLTSEDTAVYYCARGVGTYHGAGGWFDPWGQGTLVTVSS
VL: QSVVTQPPSVSETPGQRVTISCSGSSSNIGSNIVSWYQQLPGTAPKLLIYSDTQRPSGVPDRFSASKSGTSASLAISGLHSEDEADYYCATWDDSLKRGVFGGGTKLTVL
notes: as for B1
B16: RUPA-72 (antibody, V domains shown)
VH: EVQLVESGGGLVQPGGSLRLSCAASGFTFSYYWMHWVRQAPGKELVWVSRIKSDGSSGTTTDYADSVKGRFTISRDTAKNTLYLQMNSLRAEDTAVYYCARAGCSNGVCPPRYYYHGMDVWGQGTTVTVSS
VL: EIVLTQSPGTLSGSPGERATLSCRASQSIRSNYLAWYQQKPGQAPRLLIYGASSRATDIPARFSGSGSGTDFTLTISRLEPEDFAVYYCQHYGNSRVTFGQGTKVEIK
notes: as for B1
B17: RUPA-54 (antibody, V domains shown)
VH: QVQLVESGGGVVQPGRSLRLSCTASGFTFRSYGIHWVRQAPGKGLQWVAFISYDGRNKYYADSVKGRFTISRDNSKNTLYLQMSGLRADDTAVYYCAKDSDNDCTATSCYTVSWGQGTLVTVSS
VL: SYELTQPPSVSVSPGQTARITCSGDALPKKYAYWYQQKSGQAPVLVIYEDKKRPSGIPERFSGSSSGTMATLTISGAQVEDEADYYCYSTDSRTDHGGIFGGGTKLTVL
notes: as for B1
B18: RUPA-86 (antibody, V domains shown)
VH: QVQLVQSGAEVKKPGASVKVSCKSSGFRFTGYYIHWVRQAPGQGLEWMGCINPNNGGTNYAQKFQGRVTMTRDTSITTAYMDLSRLKSDDTAVYYCARLVAYDQGLDVWGQGTTVTVSS
VL: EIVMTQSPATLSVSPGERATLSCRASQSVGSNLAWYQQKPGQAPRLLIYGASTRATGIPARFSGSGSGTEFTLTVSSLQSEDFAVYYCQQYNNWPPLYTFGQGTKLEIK
notes: as for B1

Molecular target: recombinant full-length Pfs48/45 (Plasmodium falciparum 3D7, UniProt Q8I6T1)
Sequence (Q8I6T1 28-428): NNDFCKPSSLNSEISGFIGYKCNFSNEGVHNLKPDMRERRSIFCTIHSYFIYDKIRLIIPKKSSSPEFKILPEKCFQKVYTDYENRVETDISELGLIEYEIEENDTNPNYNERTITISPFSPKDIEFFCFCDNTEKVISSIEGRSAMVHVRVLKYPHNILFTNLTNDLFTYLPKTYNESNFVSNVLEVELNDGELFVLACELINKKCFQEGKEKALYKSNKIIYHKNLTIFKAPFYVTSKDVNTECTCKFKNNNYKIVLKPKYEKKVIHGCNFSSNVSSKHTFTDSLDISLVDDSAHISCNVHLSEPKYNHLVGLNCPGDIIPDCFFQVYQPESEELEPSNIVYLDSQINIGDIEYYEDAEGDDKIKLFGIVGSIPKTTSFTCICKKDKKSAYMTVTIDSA
Assay: ELISA
Settings: both partners purified

**Q.** Does B1 bind?
**A.** Result: binds

**Q.** Does B2 bind?
**A.** Result: binds

**Q.** Does B3 bind?
**A.** Result: binds

**Q.** Does B4 bind?
**A.** Result: binds

**Q.** Does B5 bind?
**A.** Result: binds

**Q.** Does B6 bind?
**A.** Result: binds

**Q.** Does B7 bind?
**A.** Result: binds

**Q.** Does B8 bind?
**A.** Result: binds

**Q.** Does B9 bind?
**A.** Result: binds

**Q.** Does B10 bind?
**A.** Result: binds

**Q.** Does B11 bind?
**A.** Result: binds

**Q.** Does B12 bind?
**A.** Result: binds

**Q.** Does B13 bind?
**A.** Result: binds

**Q.** Does B14 bind?
**A.** Result: binds

**Q.** Does B15 bind?
**A.** Result: binds

**Q.** Does B16 bind?
**A.** Result: binds

**Q.** Does B17 bind?
**A.** Result: binds

**Q.** Does B18 bind?
**A.** Result: binds

Molecular target: Pfs48/45 D1-2 (Plasmodium falciparum 3D7, UniProt Q8I6T1)
Sequence (Q8I6T1 28-289): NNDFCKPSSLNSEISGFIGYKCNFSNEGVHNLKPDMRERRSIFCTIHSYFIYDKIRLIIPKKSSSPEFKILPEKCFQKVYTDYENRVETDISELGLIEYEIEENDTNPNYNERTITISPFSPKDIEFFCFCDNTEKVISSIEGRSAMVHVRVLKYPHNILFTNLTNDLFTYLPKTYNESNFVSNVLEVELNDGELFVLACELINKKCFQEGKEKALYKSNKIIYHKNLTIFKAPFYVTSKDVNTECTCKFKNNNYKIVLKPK
Assay: ELISA
Settings: both partners purified

**Q.** Does B3 bind?
**A.** Result: binds

**Q.** Does B4 bind?
**A.** Result: binds

**Q.** Does B7 bind?
**A.** Result: no binding (tested: 10 ug/ml)

**Q.** Does B8 bind?
**A.** Result: binds

**Q.** Does B9 bind?
**A.** Result: binds

**Q.** Does B10 bind?
**A.** Result: binds

**Q.** Does B13 bind?
**A.** Result: binds

**Q.** Does B15 bind?
**A.** Result: binds

**Q.** Does B18 bind?
**A.** Result: binds

Molecular target: Pfs48/45 D2-3 (Plasmodium falciparum 3D7, UniProt Q8I6T1)
Sequence (Q8I6T1 184-428): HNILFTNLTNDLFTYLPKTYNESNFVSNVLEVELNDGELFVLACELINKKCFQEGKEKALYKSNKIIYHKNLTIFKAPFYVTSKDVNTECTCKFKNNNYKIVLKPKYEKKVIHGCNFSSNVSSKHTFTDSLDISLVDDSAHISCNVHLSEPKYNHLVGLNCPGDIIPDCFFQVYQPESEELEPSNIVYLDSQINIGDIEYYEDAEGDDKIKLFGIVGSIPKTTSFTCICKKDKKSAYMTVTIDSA
Assay: ELISA
Settings: both partners purified

**Q.** Does B1 bind?
**A.** Result: binds

**Q.** Does B2 bind?
**A.** Result: binds

**Q.** Does B3 bind?
**A.** Result: binds

**Q.** Does B4 bind?
**A.** Result: binds

**Q.** Does B5 bind?
**A.** Result: binds

**Q.** Does B6 bind?
**A.** Result: binds

**Q.** Does B7 bind?
**A.** Result: binds

**Q.** Does B8 bind?
**A.** Result: binds

**Q.** Does B9 bind?
**A.** Result: binds

**Q.** Does B10 bind?
**A.** Result: binds

**Q.** Does B11 bind?
**A.** Result: binds

**Q.** Does B12 bind?
**A.** Result: binds

**Q.** Does B13 bind?
**A.** Result: binds

**Q.** Does B14 bind?
**A.** Result: binds

**Q.** Does B15 bind?
**A.** Result: binds

**Q.** Does B16 bind?
**A.** Result: binds

**Q.** Does B17 bind?
**A.** Result: binds

**Q.** Does B18 bind?
**A.** Result: binds

Molecular target: Pfs48/45 D3 (Plasmodium falciparum 3D7, UniProt Q8I6T1)
Sequence (Q8I6T1 287-428): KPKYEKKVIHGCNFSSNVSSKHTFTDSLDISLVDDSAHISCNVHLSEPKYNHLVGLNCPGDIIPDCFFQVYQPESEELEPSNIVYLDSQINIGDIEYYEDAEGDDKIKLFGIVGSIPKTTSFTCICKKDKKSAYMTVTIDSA
Assay: ELISA
Settings: both partners purified

**Q.** Does B1 bind?
**A.** Result: binds

**Q.** Does B2 bind?
**A.** Result: binds

**Q.** Does B5 bind?
**A.** Result: binds

**Q.** Does B6 bind?
**A.** Result: binds

**Q.** Does B7 bind?
**A.** Result: binds

**Q.** Does B8 bind?
**A.** Result: no binding (tested: 10 ug/ml)

**Q.** Does B10 bind?
**A.** Result: no binding (tested: 10 ug/ml)

**Q.** Does B11 bind?
**A.** Result: binds

**Q.** Does B12 bind?
**A.** Result: binds

**Q.** Does B14 bind?
**A.** Result: binds

**Q.** Does B15 bind?
**A.** Result: no binding (tested: 10 ug/ml)

**Q.** Does B16 bind?
**A.** Result: binds

**Q.** Does B17 bind?
**A.** Result: binds
